From the supplement of paper PMC7877785
± gives the uncertainty stated by the source.

Experiment: self-splicing fitness, log relative to wild type (ln ratio); higher = more splicing; Tetrahymena group I intron in knt gene, E. coli kanamycin selection, DiMSum; sequences stand for … in CUCUCU…GGAGGGAAAAGUUAUCAGGCAUGCACCUGGUAGCUAGUCUUUAAACCAAUAGAUUGCAUCGGUUUAAAAGGCAAGACCGUCAAAUUGCGGGAAAGGGGUCAACAGCCGUUCAGUACCAAGUCUCAGGGGAAACUUUGAGAUGGCCUUGCAAAGGGUAUGGUAAUAAGCUGACGGACAUGGUCCUAACCACGCAGCCAAGUCCUAAGUCAACAGAUCUUCUGUUGAUAUGGAUGCAGUUCACAGACUAAAUGUCGGUCGGGGAAGAUGUAUUCUUCUCAUAAGAUAUAGUCGGACCUCUCCUUAAUGGGAGCUAGCGGAUGAAGUGAUGCAACACUGGAGCCGCUGGGAACUAAUUUGUAUGCGAAAGUAUAUUGAUUAGUUUUGGAGUACUCGUGGUCG
Summary of the method: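 Fitness was computed with DiMSum as the error-weighted combination of replicate fold changes, kanamycin versus none, each normalised to wild type. The library randomised all eight intron nucleotides of the P1ex region, with the intron placed in the knt kanamycin-resistance gene on pET-22b(+) in E. coli BL21(DE3). Six replicate transformations were grown overnight at 37°C or 30°C on LB agar with or without 25 μg/mL kanamycin, plus 100 μg/mL carbenicillin, 50 μM IPTG and 0.2% rhamnose. Pooled colonies were amplicon-sequenced on an Illumina HiSeq 2500.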

| Sequence | self-splicing fitness (ln) (30 °C) | self-splicing fitness (ln) (37 °C) |
| --- | --- | --- |
| AUACAGCAAUAUUACGCGCC | -1.06 ± 0.12 | -0.66 ± 0.16 |
| AUACAGCAAUAUUACGCGCU | -0.631 ± 0.094 | 0.0173 ± 0.12 |
| AUACAGCAAUAUUACGCUCG | -0.288 ± 0.12 | -0.205 ± 0.15 |
| AUACAGCAAUAUUACGCUCU | 0.359 ± 0.13 | 0.358 ± 0.16 |
| AUACAGCAAUAUUACGCUGC | -2.38 ± 0.18 | -3.02 ± 0.29 |
| AUACAGCAAUAUUACGGACU | -0.732 ± 0.06 | 0.141 ± 0.09 |
| AUACAGCAAUAUUACGGCAG | -2.21 ± 0.072 | -0.564 ± 0.077 |
| AUACAGCAAUAUUACGGGAG | -3.35 ± 0.15 | -2.12 ± 0.13 |
| AUACAGCAAUAUUACGGGCG | -1.25 ± 0.077 | -1.18 ± 0.11 |
| AUACAGCAAUAUUACGGUUC | -2.89 ± 0.12 | -1.2 ± 0.12 |
| AUACAGCAAUAUUACGUAGG | -2.13 ± 0.11 | -0.536 ± 0.12 |
| AUACAGCAAUAUUACGUCCA | -1.17 ± 0.08 | -0.0617 ± 0.086 |
| AUACAGCAAUAUUACGUGCC | -1.16 ± 0.078 | -0.689 ± 0.11 |
| AUACAGCAAUAUUACGUGUU | -3.98 ± 0.21 | -2.64 ± 0.22 |
| AUACAGCAAUAUUACGUUCA | -0.878 ± 0.07 | -0.304 ± 0.071 |
| AUACAGCAAUAUUACGUUCG | -1.69 ± 0.071 | -1.15 ± 0.093 |
| AUAGAGCAAUAUUACGAAGC | -2.7 ± 0.28 | -0.819 ± 0.35 |
| AUAGAGCAAUAUUACGACGC | -0.187 ± 0.14 | -0.765 ± 0.17 |
| AUAGAGCAAUAUUACGACUU | -0.0326 ± 0.11 | 0.17 ± 0.11 |

| Sequence | self-splicing fitness (ln) (30 °C) | self-splicing fitness (ln) (37 °C) |
| --- | --- | --- |
| AUAGAGCAAUAUUACGCCCA | -1.09 ± 0.29 | -1.03 ± 0.48 |
| AUAGAGCAAUAUUACGCCUG | -0.827 ± 0.092 | 0.302 ± 0.15 |
| AUAGAGCAAUAUUACGCGCA | -0.749 ± 0.14 | -0.253 ± 0.17 |
| AUAGAGCAAUAUUACGGACG | -2.69 ± 0.22 | -0.981 ± 0.19 |
| AUAGAGCAAUAUUACGGAGC | – | -2.05 ± 0.38 |
| AUAGAGCAAUAUUACGGCGC | -1.36 ± 0.096 | -0.282 ± 0.14 |
| AUAGAGCAAUAUUACGGCUG | -1.13 ± 0.13 | 0.795 ± 0.2 |
| AUAGAGCAAUAUUACGGGUG | -3.22 ± 0.24 | -2.58 ± 0.26 |
| AUAGAGCAAUAUUACGGUCU | -1.2 ± 0.11 | -0.695 ± 0.15 |
| AUAGAGCAAUAUUACGUUGA | -1.89 ± 0.12 | -1.4 ± 0.12 |
| AUAUAGCAAUAUUACGAAAA | -2.4 ± 0.41 | -1.72 ± 0.34 |
| AUAUAGCAAUAUUACGAACU | -1.38 ± 0.22 | 0.111 ± 0.21 |
| AUAUAGCAAUAUUACGAAUG | -1.77 ± 0.16 | -1.54 ± 0.18 |
| AUAUAGCAAUAUUACGACCA | -1.05 ± 0.32 | 0.391 ± 0.26 |
| AUAUAGCAAUAUUACGACUC | -0.877 ± 0.15 | -0.341 ± 0.2 |
| AUAUAGCAAUAUUACGAUCA | -1.4 ± 0.16 | -0.365 ± 0.22 |
| AUAUAGCAAUAUUACGAUCU | 0.333 ± 0.15 | 0.288 ± 0.13 |
| AUAUAGCAAUAUUACGAUGC | -2.89 ± 0.27 | -0.335 ± 0.22 |
